According to patent US20230060095A1 (Regeneron, published 2023):
Where a chain is given by its changes, count along the chain named. Values belong to the binder of their own block, whether it stands above or below them.

How the values were obtained:
[1] = molecular target: T1, PRAME peptide on HLA-A*02:01 (human); experiment: multimer staining
T1 peptide: SLLQHLIGL

peptide on HLA-A*02:01 = molecular target: T2, peptide on HLA-A*02:01 (human); experiment: activation reporter or marker
T2 peptide: SLLMWITQC

[2] = molecular target: HLA-A2/PRAME (425-433) on HLA-A2*01 HEK293T cells pulsed with PRAME 425-433 peptide (human); experiment: cell-based or functional assay
[3] = molecular target: T3, soluble HLA:A2:PRAME (425-433) tetramer (human); experiment: flow cytometry, soluble pMHC tetramer on CHO cells expressing the TCR;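 note: CHO cells transfected with vectors encoding full-length paired TCR alpha and beta chains, stained with PRAME/HLA tetramer and read by flow cytometry, each value reflects one listed TCR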
T3 construct: Commercial tetramer (MBL International); construct limits, biotin tag and streptavidin/fluorophore not described; also called PRAME/HLA tetramer reagent; PRAME (425-433)/HLA-A2

binding result [1]: recognises
binding result (peptide on HLA-A*02:01): no recognition
EC50 (µM) of peptide, AP1 luciferase reporter in Jurkat cells expressing the TCR [2]: 0.0479 µM
Cell Frequency ≥1000 MFI, ≥1% (% tetramer positive cells in the Ag+ gate) [3]: 6.86%
B2: PN42833 (TCR, V domains shown)
V domain 1: DAKTTQPPSMDCAEGRAANLPCNHSTISGNEYVYWYRQIHSQGPQYIIHGLKNNETNEMASLIITEDRKSSTLILPHATLRDTAVYYCIVRDTTSGTYKYIFGTGTRLKVLA
V domain 2: EAQVTQNPRYLITVTGKKLTVTCSQNMNHEYMSWYRQDPGLGLRQIYYSMNVEVTDKGDVPEGYKVSRKEKRNFPLILESPSPNQTSLYFCASSLSSTGFSPLHFGNGTRLTVT

binding result [1]: recognises
binding result (peptide on HLA-A*02:01): no recognition
EC50 (µM) of peptide, AP1 luciferase reporter in Jurkat cells expressing the TCR [2]: 0.876 µM
Cell Frequency ≥1000 MFI, ≥1% (% tetramer positive cells in the Ag+ gate) [3]: 91.6%
B4: PN42774 (TCR, V domains shown)
V domain 1: QKEVEQNSGPLSVPEGAIASLNCTYSDRGSQSFFWYRQYSGKSPELIMSIYSNGDKEDGRFTAQLNKASQYVSLLIRDSQPSDSATYLCAVNRGTDKLIFGTGTRLQVFP
V domain 2: DAGVTQSPTHLIKTRGQQVTLRCSPKSGHDTVSWYQQALGQGPQFIFQYYEEEERQRGNFPDRFSGHQFPNYSSELNVNALLLGDSALYLCASSWTDYGYTFGSGTRLTVV

binding result [1]: recognises
binding result (peptide on HLA-A*02:01): no recognition
EC50 (µM) of peptide, AP1 luciferase reporter in Jurkat cells expressing the TCR [2]: 0.245 µM
Cell Frequency ≥1000 MFI, ≥1% (% tetramer positive cells in the Ag+ gate) [3]: 49.4%
B5: PN42795 (TCR, V domains shown)
V domain 1: RKEVEQDPGPFNVPEGATVAFNCTYSNSASQSFFWYRQDCRKEPKLLMSVYSSGNEDGRFTAQLNRASQYISLLIRDSKLSDSATYLCVVNGGSQGNLIFGKGTKLSVKP
V domain 2: B4 V domain 2 with W95V, T96G

binding result [1]: recognises
binding result (peptide on HLA-A*02:01): no recognition
EC50 (µM) of peptide, AP1 luciferase reporter in Jurkat cells expressing the TCR [2]: 0.911 µM
Cell Frequency ≥1000 MFI, ≥1% (% tetramer positive cells in the Ag+ gate) [3]: 10.5%
B6: PN42845 (TCR, V domains shown)
V domain 1: TQLLEQSPQFLSIQEGENLTVYCNSSSVFSSLQWYRQEPGEGPVLLVTVVTGGEVKKLKRLTFQFGDARKDSSLHITAAQPGDTGLYLCAGIRSNDYKLSFGAGTTVTVRA
V domain 2: EAQVTQNPRYLITVTGKKLTVTCSQNMNHEYMSWYRQDPGLGLRQIYYSMNVEVTDKGDVPEGYKVSRKEKRNFPLILESPSPNQTSLYFCASSSWTAHTEAFFGQGTRLTVV

binding result [1]: recognises
binding result (peptide on HLA-A*02:01): no recognition
EC50 (µM) of peptide, AP1 luciferase reporter in Jurkat cells expressing the TCR [2]: 0.126 µM
Cell Frequency ≥1000 MFI, ≥1% (% tetramer positive cells in the Ag+ gate) [3]: 4.35%
B9: PN42815 (TCR, V domains shown)
V domain 1: GESVGLHLPTLSVQEGDNSIINCAYSNSASDYFIWYKQESGKGPQFIIDIRSNMDKRQGQRVTVLLNKTVKHLSLQIAATQPGDSAVYFCAENNYGQNFVFGPGTRLSVLP
V domain 2: EAQVTQNPRYLITVTGKKLTVTCSQNMNHEYMSWYRQDPGLGLRQIYYSMNVEVTDKGDVPEGYKVSRKEKRNFPLILESPSPNQTSLYFCASSLWDSSPLHFGNGTRLTVT
notes: the summary and claims print the pair as 893/805

binding result [1]: recognises
binding result (peptide on HLA-A*02:01): no recognition
EC50 (µM) of peptide, AP1 luciferase reporter in Jurkat cells expressing the TCR [2]: 0.94 µM
Cell Frequency ≥1000 MFI, ≥1% (% tetramer positive cells in the Ag+ gate) [3]: 4.09%
B12: PN42895 (TCR, V domains shown)
V domain 1: DQQVKQSSPSLSVQEGRISILNCDYTNSMFDYFLWYKKYPAEGPTFLISISSIKDKNEDGRFTVFLNKSAKHLSLHIVPSQPGDSAVYFCAASAGSARQLTFGSGTQLTVLP
V domain 2: B9 V domain 2 with D97S, S98N, S99T, P100E, L101A, H102F, N105Q, T112V

Continued, binder first:

B1: PN42712 (TCR, V domains shown)
V domain 1: GIQVEQSPPDLILQEGANSTLRCNFSDSVNNLQWFHQNPWGQLINLFYIPSGTKQNGRLSATTVATERYSLLYISSSQTTDSGVYFCAVGSSNDYKLSFGAGTTVTVRA
V domain 2: B2 V domain 2 with L95P, S96G, S97T, T98G
binding result [1]: recognises
binding result (peptide on HLA-A*02:01): no recognition
EC50 (µM) of peptide, AP1 luciferase reporter in Jurkat cells expressing the TCR [2]: 0.0133 µM
Cell Frequency ≥1000 MFI, ≥1% (% tetramer positive cells in the Ag+ gate) [3]: 80.7%

B3: PN42711 (TCR, V domains shown)
V domain 1: B1 V domain 1 with A17V, Q78R, D94G
V domain 2: B2 V domain 2 with L95P, S96G, S97T, T98G
binding result [1]: recognises
binding result (peptide on HLA-A*02:01): no recognition
EC50 (µM) of peptide, AP1 luciferase reporter in Jurkat cells expressing the TCR [2]: 0.0569 µM
Cell Frequency ≥1000 MFI, ≥1% (% tetramer positive cells in the Ag+ gate) [3]: 4.26%

B7: PN42707 (TCR, V domains shown)
V domain 1: GESVGLHLPTLSVQEGDNSIINCAYSNSASDYFIWYKQESGKGPQFIIDIRSNMDKRQGQRVTVLLNKTVKHLSLQIAATQPGDSAVYFCAENKRDNYGQNFVFGPGTRLSVLP
V domain 2: B9 V domain 2 with L95F, D97V, S98N, S99T, P100E, L101A, H102F, N105Q, T112V
binding result [1]: recognises
binding result (peptide on HLA-A*02:01): no recognition
EC50 (µM) of peptide, AP1 luciferase reporter in Jurkat cells expressing the TCR [2]: 0.0118 µM
Cell Frequency ≥1000 MFI, ≥1% (% tetramer positive cells in the Ag+ gate) [3]: 7.28%

B8: PN42826 (TCR, V domains shown)
V domain 1: B12 V domain 1 with S7N
V domain 2: B9 V domain 2 with W96Y, D97T, S98H, S99T, P100E, L101A, H102F, N105Q, T112V
binding result [1]: recognises
binding result (peptide on HLA-A*02:01): no recognition
EC50 (µM) of peptide, AP1 luciferase reporter in Jurkat cells expressing the TCR [2]: 4.92 µM
Cell Frequency ≥1000 MFI, ≥1% (% tetramer positive cells in the Ag+ gate) [3]: 9.26%

B10: PN42762 (TCR, V domains shown)
V domain 1: DAKTTQPNSMESNEEEPVHLPCNHSTISGTDYIHWYRQLPSQGPEYVIHGLTSNVNNRMASLAIAEDRKSSTLILHRATLRDAAVYYCILNTGTASKLTFGTGTRLQVTL
V domain 2: B9 V domain 2 with W96S, D97S, S98N, S99T, P100E, L101A, H102F, N105Q, T112V
binding result [1]: recognises
binding result (peptide on HLA-A*02:01): no recognition
EC50 (µM) of peptide, AP1 luciferase reporter in Jurkat cells expressing the TCR [2]: 115 µM
Cell Frequency ≥1000 MFI, ≥1% (% tetramer positive cells in the Ag+ gate) [3]: 4.95%

B11: PN42441 (TCR, V domains shown)
V domain 1: DAKTTQPNSMESNEEEPVHLPCNHSTISGTDYIHWYRQLPSQGPEYVIHGLTSNVNNRMASLAIAEDRKSSTLILHRATLRDAAVYYCIRRPGNQFYFGTGTSLTVIP
V domain 2: B9 V domain 2 with D97T, S98G, P100E, L101A, H102F, N105Q, T112V
binding result [1]: recognises
binding result (peptide on HLA-A*02:01): no recognition
EC50 (µM) of peptide, AP1 luciferase reporter in Jurkat cells expressing the TCR [2]: 0.821 µM
Cell Frequency ≥1000 MFI, ≥1% (% tetramer positive cells in the Ag+ gate) [3]: 15.5%

B13: PN42746 (TCR, V domains shown)
V domain 1: B7 V domain 1 with K94R, R95Q
V domain 2: B9 V domain 2 with D97V, S98N, S99T, P100E, L101A, H102F, N105Q, T112V
binding result [1]: recognises
binding result (peptide on HLA-A*02:01): no recognition
EC50 (µM) of peptide, AP1 luciferase reporter in Jurkat cells expressing the TCR [2]: 0.046 µM
Cell Frequency ≥1000 MFI, ≥1% (% tetramer positive cells in the Ag+ gate) [3]: 4.39%
